In US20230272097A1 (PETMEDIX, published 2023):
Residue numbers refer to the chain shown, from its start.

T1: canine OX40L, full length membrane form, expressed on the cell surface (HEK293 or MEF cells stably … (canine (dog, beagle)))
T1 construct: The same protein is used on HEK293 and on MEF cells; also called HEK-OX40L; OX40L expressing HEK293 cells
T1 chain: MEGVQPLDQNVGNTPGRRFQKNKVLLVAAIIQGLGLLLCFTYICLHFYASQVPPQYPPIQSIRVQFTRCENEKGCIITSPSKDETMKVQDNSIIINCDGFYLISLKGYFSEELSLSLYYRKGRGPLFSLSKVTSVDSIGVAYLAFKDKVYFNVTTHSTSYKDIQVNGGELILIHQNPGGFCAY

B1: PMX019 (antibody, V domains shown)
VH: EVQLVESGGDLVKPGGSLRLSCVASGFTFSSNYMSWIRQAPGKGLQWVSQISGDGIYTNYADAMKGRFTISRDNAKNTLYLQMNSLRDEDTALYYCATGIYPNAFGYWGQGTLVTVSS
VL: SYVLTQLSSKNVTLKQPAHITCGGDNIGSKSVHWYQQKLGQAPVLIIYYDSSRPTGIPERFSGANSGNTATLTISGALAEDEADYYCQVWDSSANVFGGGTHLTVL
notes: Canine variable regions; also called PMX19
B2: PMX020 (antibody, V domains shown)
VH: EVQLVESGGDLVKPGGSLRISCVASGFTFSSYHMNWVRQAPGKGLQWVAHISSGGTFTSYADAVKGRFTISRDNAKNTLYLQMISLRAEDTAVYYCASGLFLVVGGGNYWGRGTLVTVSS
VL: B1 VL with S8P, Y49S, N95S
notes: Canine variable regions
B3: PMX016 (antibody, V domains shown)
VH: EVQLVESGGDLVKPGGSLRLSCVASGFTFSNYHMNWVRQAPGKGLQWVAYITSDGIVSSYADVVKGRFTISRDNAKNTLFLQMNSLRAEDTAVYYCASGLFLVVGGGTFWGQGTLVTVSS
VL: SYVLTQLPSKNVTLKQPAHITCGGDNIGSKSVHWYQQKLGQAPVLIIYSDSSRPTGIPERFSGANSGNTATLTISGALAEDEADYYCQVWDSSAKASVFGGGTHLTVL
notes: Canine variable regions
B4: PMX013 (antibody, V domains shown)
VH: ELTLQESGPGLVKPSQTLSLTCVVSGGSVTSSHYWNWIRQRPGRGLEWMGSWTGGTNYNPAFQGRISVTSDTAKNQFSLQLSSLTTEDTAVYYCARGGGYSGTWKDYYVMDYWGHGTSVIVSS
VL: B3 VL with K15N, I27L, S49F, S51T
notes: Canine variable regions
B5: PMX017 (antibody, V domains shown)
V domain 1: EVQLVESGGDLVKPGGSLRLSCVASGFTFSSYHMSWVRQAPGKGLQWVAYIASGGTVTTYADAVRGRFTISRDNAKNMLYLQMNSLRAEDSAVYYCTRWKGGTFGYGMDYWGHGTSLFVSS
V domain 2: B3 VL with S49Y, S51N, S52N, T55A
notes: Canine variable regions
B6: PMX018 (antibody, V domains shown)
VH: B3 VH with S53N, V63A, F80Y, A88V
VL: B3 VL with Q37H, S49Y
notes: Canine variable regions
B7: PMX 024 (antibody, V domains shown)
VH: B1 VH with Q3L, V5M, S35Y, I56S, Y57F, M64V, L93V, Y94F, T98S
VL: B1 VL with L7P, S8P, W90R
notes: anti-canine OX40L candidate
B8: PMX 015 (antibody, V domains shown)
V domain 1: EVQLVESGGDLVKPGGSLRISCVASGFTFSYYHMSWVRQAPGKGLQWVAYINSGGFSTNYADAVKGRCSISRDNGKNTLYLQMNSLRPEDTGVYYCASESRWGDSYSGMTYWGHGTSLFVSS
V domain 2: B3 VL with S49Y, S51N, N65K
notes: anti-canine OX40L candidate
B9: PMX020 formulated in canine IgGB Def2 backbone (antibody)
heavy: EVQLVESGGDLVKPGGSLRISCVASGFTFSSYHMNWVRQAPGKGLQWVAHISSGGTFTSYADAVKGRFTISRDNAKNTLYLQMISLRAEDTAVYYCASGLFLVVGGGNYWGRGTLVTVSSASTTAPSVFPLAPSCGSTSGSTVALACLVSGYFPEPVTVSWNSGSLTSGVHTFPSVLQSSGLYSLSSMVTVPSSRWPSETFTCNVAHPASKTKVDKPVPKRENGRVPRPPDCPKCPAPESLGGPSVFIFPPKPKDTLLIARTPEVTCVVVDLGREDPEVQISWFVDGKQMQTAKTQPREEQFNGTYRVVSVLPIGHQDWLKGKQFTCKVNHIGLPSPIERTISKARGQAHQPSVYVLPPSREELSKNTVSLTCLIKDFFPPDIDVEWQSNGQQEPESKYRTTPPQLDEDGSYFLYSKLSVDKSRWQRGDTFICAVMHEALHNHYTQKSLSHSPGK
light: B1 VL with S8P, Y49S, N95S
notes: also called PMX020 Def2; not shown: light chain constant region (human kappa, or canine kappa or lambda)
B10: PMX020 formulated in canine IgGB Def7 backbone (antibody)
heavy: B9 heavy with S240A, L241A, G273D, R274P, H331N, I332K, G333A, P335G
light: B1 VL with S8P, Y49S, N95S
notes: also called PMX020 Def7; not shown: light chain constant region (human kappa, or canine kappa or lambda)
B11: PMX014 formulated in canine IgGB Def2 backbone (antibody)
heavy: EVQLVESGGDLVKPGGSLRLSCVASGFTFSNFHMSWVRQAPGKGLQWVAYINSGGFNINYEDAVRGRFTISRDNAKNTLYLQMNSLRAEDTAIYYCARDWDTHLDTNWFYYWGQGTLVTVSSASTTAPSVFPLAPSCGSTSGSTVALACLVSGYFPEPVTVSWNSGSLTSGVHTFPSVLQSSGLYSLSSMVTVPSSRWPSETFTCNVAHPASKTKVDKPVPKRENGRVPRPPDCPKCPAPESLGGPSVFIFPPKPKDTLLIARTPEVTCVVVDLGREDPEVQISWFVDGKQMQTAKTQPREEQFNGTYRVVSVLPIGHQDWLKGKQFTCKVNHIGLPSPIERTISKARGQAHQPSVYVLPPSREELSKNTVSLTCLIKDFFPPDIDVEWQSNGQQEPESKYRTTPPQLDEDGSYFLYSKLSVDKSRWQRGDTFICAVMHEALHNHYTQKSLSHSPGK
light: B3 VL with P17S, G23R, S49Y, S92I
notes: also called PMX014 Def2; not shown: light chain constant region (human kappa, or canine kappa or lambda)
B12: PMX014 formulated in canine IgGB Def7 backbone (antibody)
heavy: B11 heavy with S242A, L243A, G275D, R276P, H333N, I334K, G335A, P337G
light: B3 VL with P17S, G23R, S49Y, S92I
notes: also called PMX014 Def7; not shown: light chain constant region (human kappa, or canine kappa or lambda)

Biological target: T1, canine OX40L, full length membrane …
Assay: flow cytometry titration on HEK cells expressing OX40L; Kd (EC50) from GeoMean vs concentration, Prism four parameter fit
Experimental: (§1) FIG. 10. Affinity determination for antibodies that bind OX40L on HEK cells expressing OX40L. Graphs are generated by plotting GeoMean arbitrary units (AU) against Log₁₀ [concentration]. Kd (EC₅₀) was calculated using Prism.
(§2) Specific binding to cells expressing OX40L is confirmed by purifying mAb from the CHO supernatant using protein A resin (MabSelect, Cytiva). In brief, MabSelect resin is washed in PBS and diluted to have a 10% slurry. An appropriate volume of the 10% slurry is added to the supernatant and incubated 5-10′ at RT before being loaded into a filter column. After 3 washes with PBS the antibodies are eluted using IgG elute buffer (Pierce) directly into neutralisation buffer (10 mM TRIS pH8.0), 8:1 IgG elute: neutralisation buffer ratio. Antibody solutions are quantified measuring absorbance at 280 nm, using a Nanodrop One (Thermo Fisher). Serial 1:3 dilutions of purified antibodies ranging from 6.6 μM to 66 pM are prepared in FACS buffer and are used to stain HEK293 or MEF cells (or any other commonly used cell lines) expressing canine OX40L.

First: B1
Second: B2
The Kd of the first is 1.6-fold higher: 4.49 nM for the first, 2.8 nM for the second. The second binds more tightly here.

Compared with B3, B4 is 4.4-fold higher in Kd: 37.4 nM for the first, 165 nM for the second.

B5 and B6 are within 1.5-fold of each other in Kd: 30 nM for the first, 23.6 nM for the second.

Biological target: T1, canine OX40L, full length membrane …
Assay: flow cytometry, single dose, OX40L expressing HEK293 cells against the parental line, fluorescently labelled secondary antibody
Experimental: CHO cells supernatants containing candidate antibodies are diluted to 1, 5 or 10 μg/ml in FACS buffer (PBS containing 3% FBS) and screened for their ability to bind canine OX40L proteins expressed on cell surface. In brief, HEK293 or MEF cells (or any other commonly used cell lines) expressing canine OX40L at the cell surface are incubated with 100 μl of FACS buffer containing the candidate antibody for 30′ on ice. As a control the parental cell line (HEK293 or MEF cells not expressing OX40L) is also stained with the same antibody solution. After staining, cells are washed with 150 μl FACS buffer followed by centrifugation at 300 g for 3 min. Supernatant is removed, and the cell pellet is resuspended in FACS buffer containing a 1:1000 dilution of a fluorescently labelled secondary antibody recognising the human or canine Fc region of the test antibody for 30 min in the dark, followed by washing with 150 μl FACS buffer and centrifugation at 300 g for 3 mins. Cells are resuspended in FACS buffer and flow cytometry performed using either a […] cytometer, followed by data analysis using FlowJo (FIG. 8).

B7: binds.
B8: binds.

Biological target: T1, canine OX40L, full length membrane …
Assay: flow cytometry titration on HEK cells expressing OX40L; Kd (EC50), Prism
Experimental: as §1, with “FIG. 12.” for “FIG. 10.”, “OX40L formulated in canine IgGB Def2 and Def7 backbones. The experiment was performed using” for “OX40L on”, “(AU) values” for “(AU)”
as §2

B9 and B10 are within 1.5-fold of each other in Kd: 45.4 nM for the first, 58.1 nM for the second.

B11 and B12 are within 1.5-fold of each other in Kd: 74.6 nM for the first, 74.2 nM for the second.

Biological target: T1, canine OX40L, full length membrane …
Assay: flow cytometry titration on MEF cells expressing OX40L; Kd (EC50) from GeoMean vs concentration, Prism four parameter fit
Experimental: FIG. 11. Affinity determination for antibodies that bind OX40L on MEF cells expressing OX40L. Graphs are generated by plotting GeoMean arbitrary units (AU) against Log₁₀ [concentration]. Kd (EC₅₀) was calculated using Prism.
as §2

Compared with B1, B2 is 54-fold lower in Kd: 38.3 nM for the first, 0.71 nM for the second. The second binds more tightly here.

Compared with B3, B4 is 4.8-fold lower in Kd: 108 nM for the first, 22.7 nM for the second.

B5 showed a Kd of 10.7 nM.
